In experiment [1] the target is T1, HLA-DR7 (DRB1*0701), purified (human).
T1 construct: mature
As to the kind of experiment: competition on purified HLA-DR (DRB1*0701); ratio to reference peptide YKL.

Experiment [2] deals with T2, HLA-DR1 (DRB1*0101), purified (human).
T2 construct: mature
The experiment in a line: competition on purified HLA-DR (DRB1*0101); ratio to reference peptide HA 306-318.

In experiment [3] the target is T3, HLA-DR4 (DRB1*0401), purified (human).
T3 construct: mature
The experiment in a line: competition on purified HLA-DR (DRB1*0401); ratio to reference peptide HA 306-318.

The target in experiment [4] is T4, HLA-DR11 (DRB1*1101), purified (human).
T4 construct: mature
The experiment in a line: competition on purified HLA-DR (DRB1*1101); ratio to reference peptide HA 306-318.

In experiment [5] the target is T5, HLA-DR15 (DRB1*1501), purified (human).
T5 construct: mature
As to the kind of experiment: competition on purified HLA-DR (DRB1*1501); ratio to reference peptide A3 152-166.

The target of experiment [6] is T6, HLA-DRB5 (DRB5*0101), purified (human).
T6 construct: mature
The experiment in a line: competition on purified HLA-DR (DRB5*0101); ratio to reference peptide HA 306-318.

Experiment [7] addresses HLA-DRB4, purified (human). The experiment in a line: competition on purified HLA-DR (DRB4); labelled peptide not named; fluorescence assay.
The target of experiment [8] is HLA-DRB4, purified (human). The experiment in a line: competition on purified HLA-DR (DRB4); ratio to a reference peptide that is not named.
Experiment [9] addresses T1, HLA-DR7 (DRB1*0701), purified. The experiment in a line: competition on purified HLA-DR (DRB1*0701) against biotinylated YKL (10 nM, pH 5); fluorescence assay.
The target in experiment [10] is T2, HLA-DR1 (DRB1*0101), purified. The experiment in a line: competition on purified HLA-DR (DRB1*0101) against biotinylated HA 306-318 (1 nM, pH 6); fluorescence assay.
Experiment [11] deals with T7, HLA-DR3 (DRB1*0301), purified (human).
T7 construct: mature
As to the kind of experiment: competition on purified HLA-DR (DRB1*0301) against biotinylated MT 2-16 (100 nM, pH 4.5); fluorescence assay.

For experiment [12], the target named is T3, HLA-DR4 (DRB1*0401), purified. As to the kind of experiment: competition on purified HLA-DR (DRB1*0401) against biotinylated HA 306-318 (30 nM, pH 6); fluorescence assay.
Experiment [13] deals with T4, HLA-DR11 (DRB1*1101), purified. As to the kind of experiment: competition on purified HLA-DR (DRB1*1101) against biotinylated HA 306-318 (20 nM, pH 5); fluorescence assay.
Experiment [14] concerns the target T8, HLA-DR13 (DRB1*1301), purified (human).
T8 construct: mature
The experiment in a line: competition on purified HLA-DR (DRB1*1301) against biotinylated B1 21-36 (200 nM, pH 4.5); fluorescence assay.

Experiment [15] has as its target T6, HLA-DRB5 (DRB5*0101), purified. The experiment in a line: competition on purified HLA-DR (DRB5*0101) against biotinylated HA 306-318 (5 nM, pH 5.5); fluorescence assay.
Experiment [16] concerns the target T5, HLA-DR15 (DRB1*1501), purified. The experiment in a line: competition on purified HLA-DR (DRB1*1501) against biotinylated A3 152-166 (10 nM, pH 4.5); fluorescence assay.
Experiment [17] addresses T9, HLA-DRB3 (DRB3*0101), purified (human).
T9 construct: mature
As to the kind of experiment: competition on purified HLA-DR (DRB3*0101) against biotinylated LOL 191-210 (5 nM, pH 5.5); fluorescence assay.

B1: peptide MAGE-3 267-282 (ACYEFLWGPRALVETS) (peptide)
peptide: ACYEFLWGPRALVETS
Take B1: the “Ratios IC50 MAGE-3/IC50 reference” value in [1] stood at 120; in [2], 0.2; in experiment [3], 18; in experiment [4], 6; in experiment [5], 15; in experiment [6], 11. In addition, in the experiment with HLA-DRB4, purified [8], the “Ratios IC50 MAGE-3/IC50 reference” value is 70. Moreover, the half-inhibitory concentration (IC50) was 2800 nM with HLA-DRB4, purified [7]; 1200 nM in experiment [9]; 0.4 nM in experiment [10]; over 10000 nM in [11]; 730 nM in experiment [12]; 150 nM in [13]. Further, the IC50 was over 10000 nM in experiment [14], 170 nM in [15], 220 nM in experiment [16] and over 10000 nM in experiment [17].

By IC50 is commonly meant the midpoint of a concentration-inhibition curve. A higher IC50 goes with weaker potency in that assay.

(Values after US20040077045A1 (LUDWIG INSTITUTE FOR CANCER RESEARCH, published 2004).)
